The supplement of paper PMC7877785
± gives the uncertainty stated by the source.

Test: self-splicing fitness, log relative to wild type (ln ratio); higher = more splicing; Tetrahymena group I intron in knt gene, E. coli kanamycin selection, DiMSum; sequences stand for … in CUCUCU…GGAGGGAAAAGUUAUCAGGCAUGCACCUGGUAGCUAGUCUUUAAACCAAUAGAUUGCAUCGGUUUAAAAGGCAAGACCGUCAAAUUGCGGGAAAGGGGUCAACAGCCGUUCAGUACCAAGUCUCAGGGGAAACUUUGAGAUGGCCUUGCAAAGGGUAUGGUAAUAAGCUGACGGACAUGGUCCUAACCACGCAGCCAAGUCCUAAGUCAACAGAUCUUCUGUUGAUAUGGAUGCAGUUCACAGACUAAAUGUCGGUCGGGGAAGAUGUAUUCUUCUCAUAAGAUAUAGUCGGACCUCUCCUUAAUGGGAGCUAGCGGAUGAAGUGAUGCAACACUGGAGCCGCUGGGAACUAAUUUGUAUGCGAAAGUAUAUUGAUUAGUUUUGGAGUACUCGUGGUCG
How it was run: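 Pooled colonies went to amplicon sequencing on an Illumina HiSeq 2500 after six replicate transformations. The plates were LB agar with 100 μg/mL carbenicillin, 50 μM IPTG and 0.2% rhamnose, with or without 25 μg/mL kanamycin, incubated overnight at 37°C or 30°C. The E. coli BL21(DE3) library had all eight P1ex-region intron nucleotides randomised, the intron placed in the knt kanamycin-resistance gene on pET-22b(+). DiMSum fitness is the error-weighted combination of replicate fold changes, kanamycin against none, normalised to wild type.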

With GGCCAGCAAUAUUACGUUCC the “self-splicing fitness (ln)” value (30 °C) was -1.28 ± 0.14 and the “self-splicing fitness (ln)” value (37 °C) was 0.125 ± 0.18.

For GCGUAGCAAUAUUACGUCCU, the “self-splicing fitness (ln)” value (30 °C) was -1.47 ± 0.14 and the “self-splicing fitness (ln)” value (37 °C) was -0.8 ± 0.15.

In the case of GAUAAGCAAUAUUACGGUAU, the “self-splicing fitness (ln)” value (30 °C) is reported as -2.17 ± 0.1 and the “self-splicing fitness (ln)” value (37 °C) is reported as -1.46 ± 0.12.

With UUAAAGCAAUAUUACGGGCG the “self-splicing fitness (ln)” value (30 °C) was 0.077 ± 0.081 and the “self-splicing fitness (ln)” value (37 °C) was -0.11 ± 0.1.

For UUAUAGCAAUAUUACGCAGC, the “self-splicing fitness (ln)” value (30 °C) was -3.44 ± 0.31 and the “self-splicing fitness (ln)” value (37 °C) was -2.49 ± 0.45.

In the case of GAUAAGCAAUAUUACGCCGA, the “self-splicing fitness (ln)” value (30 °C) is reported as -2.01 ± 0.18 and the “self-splicing fitness (ln)” value (37 °C) is reported as -1.14 ± 0.22.

With UUAAAGCAAUAUUACGCAAG the “self-splicing fitness (ln)” value (30 °C) was -0.46 ± 0.1 and the “self-splicing fitness (ln)” value (37 °C) was 0.145 ± 0.14.

For UUGCAGCAAUAUUACGUUGC, the “self-splicing fitness (ln)” value (30 °C) was -1.47 ± 0.1 and the “self-splicing fitness (ln)” value (37 °C) was -2.86 ± 0.21.

For GGUUAGCAAUAUUACGUCUG, the “self-splicing fitness (ln)” value (30 °C) was -2.1 ± 0.14 and the “self-splicing fitness (ln)” value (37 °C) was -0.405 ± 0.11.

In the case of UGGGAGCAAUAUUACGUCCC, the “self-splicing fitness (ln)” value (30 °C) is reported as -3.01 ± 0.4 and the “self-splicing fitness (ln)” value (37 °C) is reported as -1.84 ± 0.41.

For GUCUAGCAAUAUUACGGUGC, the “self-splicing fitness (ln)” value (30 °C) was 0.0594 ± 0.14 and the “self-splicing fitness (ln)” value (37 °C) was -0.142 ± 0.15.

In the case of GGGCAGCAAUAUUACGCGUA, the “self-splicing fitness (ln)” value (30 °C) is reported as -0.501 ± 0.077 and the “self-splicing fitness (ln)” value (37 °C) is reported as -0.0324 ± 0.077.

For ACUGAGCAAUAUUACGUCCG, the “self-splicing fitness (ln)” value (30 °C) was -2.79 ± 0.17 and the “self-splicing fitness (ln)” value (37 °C) was -1.58 ± 0.17.

In the case of UGAUAGCAAUAUUACGGAAU, the “self-splicing fitness (ln)” value (30 °C) is reported as -2.96 ± 0.18 and the “self-splicing fitness (ln)” value (37 °C) is reported as -2 ± 0.23.

With UCCUAGCAAUAUUACGAAUG the “self-splicing fitness (ln)” value (37 °C) was -2.76 ± 0.44.

With AACCAGCAAUAUUACGCCGG the “self-splicing fitness (ln)” value (30 °C) was -3.39 ± 0.17 and the “self-splicing fitness (ln)” value (37 °C) was -2.09 ± 0.17.

For UCCAAGCAAUAUUACGCCCG, the “self-splicing fitness (ln)” value (30 °C) was -2.32 ± 0.26.

In the case of CCGUAGCAAUAUUACGAAUA, the “self-splicing fitness (ln)” value (30 °C) is reported as -2.99 ± 0.28.

For GGCAAGCAAUAUUACGGCCU, the “self-splicing fitness (ln)” value (30 °C) was -2.74 ± 0.18 and the “self-splicing fitness (ln)” value (37 °C) was 0.111 ± 0.23.

For UUGCAGCAAUAUUACGUUAU, the “self-splicing fitness (ln)” value (30 °C) was -3.03 ± 0.22 and the “self-splicing fitness (ln)” value (37 °C) was -2.6 ± 0.21.

In the case of UACUAGCAAUAUUACGCUCG, the “self-splicing fitness (ln)” value (30 °C) is reported as -0.908 ± 0.13 and the “self-splicing fitness (ln)” value (37 °C) is reported as 0.0226 ± 0.15.

In the case of GACUAGCAAUAUUACGAUGG, the “self-splicing fitness (ln)” value (30 °C) is reported as -3.49 ± 0.13 and the “self-splicing fitness (ln)” value (37 °C) is reported as -2.24 ± 0.12.

For UGCGAGCAAUAUUACGGGCC, the “self-splicing fitness (ln)” value (30 °C) was -2.91 ± 0.28 and the “self-splicing fitness (ln)” value (37 °C) was -1.54 ± 0.21.

For ACGUAGCAAUAUUACGCGAG, the “self-splicing fitness (ln)” value (30 °C) was -3.43 ± 0.19 and the “self-splicing fitness (ln)” value (37 °C) was -0.232 ± 0.11.

With AGCAAGCAAUAUUACGCGGA the “self-splicing fitness (ln)” value (30 °C) was -2.04 ± 0.13 and the “self-splicing fitness (ln)” value (37 °C) was -0.823 ± 0.099.

In the case of CCGCAGCAAUAUUACGGGCC, the “self-splicing fitness (ln)” value (30 °C) is reported as -2.9 ± 0.25 and the “self-splicing fitness (ln)” value (37 °C) is reported as -2.34 ± 0.29.

For CUAGAGCAAUAUUACGUGGC, the “self-splicing fitness (ln)” value (30 °C) was -3.87 ± 0.24 and the “self-splicing fitness (ln)” value (37 °C) was -1.8 ± 0.23.

With AGCAAGCAAUAUUACGACCC the “self-splicing fitness (ln)” value (30 °C) was -0.234 ± 0.18 and the “self-splicing fitness (ln)” value (37 °C) was -0.196 ± 0.25.

With CCUUAGCAAUAUUACGGGGC the “self-splicing fitness (ln)” value (30 °C) was -3.39 ± 0.27 and the “self-splicing fitness (ln)” value (37 °C) was -3.06 ± 0.32.

For CCAGAGCAAUAUUACGCCGU, the “self-splicing fitness (ln)” value (30 °C) was -4.04 ± 0.48.

For CGGCAGCAAUAUUACGGACA, the “self-splicing fitness (ln)” value (30 °C) was -0.835 ± 0.12 and the “self-splicing fitness (ln)” value (37 °C) was 0.127 ± 0.11.

For UUGCAGCAAUAUUACGGCUA, the “self-splicing fitness (ln)” value (30 °C) was 0.128 ± 0.045 and the “self-splicing fitness (ln)” value (37 °C) was 0.358 ± 0.06.

For CAAAAGCAAUAUUACGACCU, the “self-splicing fitness (ln)” value (30 °C) was -1.79 ± 0.095 and the “self-splicing fitness (ln)” value (37 °C) was -0.569 ± 0.084.

For GGGAAGCAAUAUUACGCGUU, the “self-splicing fitness (ln)” value (30 °C) was -2.67 ± 0.24 and the “self-splicing fitness (ln)” value (37 °C) was -1.49 ± 0.2.

In the case of AUCGAGCAAUAUUACGUUGG, the “self-splicing fitness (ln)” value (30 °C) is reported as -4.07 ± 0.42 and the “self-splicing fitness (ln)” value (37 °C) is reported as -2.37 ± 0.31.

In the case of CUAGAGCAAUAUUACGGCUA, the “self-splicing fitness (ln)” value (30 °C) is reported as -3.41 ± 0.31 and the “self-splicing fitness (ln)” value (37 °C) is reported as -1.17 ± 0.21.

In the case of AGCAAGCAAUAUUACGGAAA, the “self-splicing fitness (ln)” value (30 °C) is reported as -3.46 ± 0.18 and the “self-splicing fitness (ln)” value (37 °C) is reported as -1.03 ± 0.11.

For GAUAAGCAAUAUUACGGAGC, the “self-splicing fitness (ln)” value (30 °C) was -3.95 ± 0.29 and the “self-splicing fitness (ln)” value (37 °C) was -1.76 ± 0.19.

With AUAUAGCAAUAUUACGUCAG the “self-splicing fitness (ln)” value (30 °C) was -3.76 ± 0.31 and the “self-splicing fitness (ln)” value (37 °C) was -1.62 ± 0.25.
